This assay concerns the target Kv1.3 (human (T-cells from human blood donors)) (UniProt P22001). Nature of the assay: cell-based or functional assay.

The values that follow come from patent US20230287598A1.

Kv1.3 (human (T-cells from human blood donors)), sequence (P22001 whole entry): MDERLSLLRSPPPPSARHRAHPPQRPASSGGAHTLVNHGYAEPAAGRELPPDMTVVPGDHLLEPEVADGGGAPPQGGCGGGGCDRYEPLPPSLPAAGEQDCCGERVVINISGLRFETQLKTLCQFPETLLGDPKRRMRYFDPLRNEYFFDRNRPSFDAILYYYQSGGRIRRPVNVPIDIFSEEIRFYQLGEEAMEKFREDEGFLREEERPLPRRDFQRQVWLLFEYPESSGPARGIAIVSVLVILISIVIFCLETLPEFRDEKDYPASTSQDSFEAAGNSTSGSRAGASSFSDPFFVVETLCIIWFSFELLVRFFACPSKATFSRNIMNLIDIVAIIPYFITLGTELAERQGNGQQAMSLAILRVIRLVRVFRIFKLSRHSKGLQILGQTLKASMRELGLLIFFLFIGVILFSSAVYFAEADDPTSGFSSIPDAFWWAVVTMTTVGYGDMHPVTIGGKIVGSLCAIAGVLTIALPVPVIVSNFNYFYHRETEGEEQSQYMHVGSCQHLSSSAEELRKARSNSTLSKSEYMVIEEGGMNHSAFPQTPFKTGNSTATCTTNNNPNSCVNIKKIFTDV

“BLV1H12 GLLV 3xG4S OSK1 (K16,D20) (antibody)” showed a TNF-α ELISA (A450), Donor 1, 6 nM IgG of 0.641 A450; a TNF-α ELISA (A450), Donor 1, 17 nM IgG of 0.698 A450; a TNF-α ELISA (A450), Donor 1, 50 nM IgG of 0.556 A450; a TNF-α ELISA (A450), Donor 1, 150 nM IgG of 0.253 A450. This substance came in with a TNF-α ELISA (A450), Donor 2, 6 nM IgG of 0.096 A450; a TNF-α ELISA (A450), Donor 2, 17 nM IgG of 0.094 A450; a TNF-α ELISA (A450), Donor 2, 50 nM IgG of 0.075 A450; a TNF-α ELISA (A450), Donor 2, 150 nM IgG of 0.027 A450. The same substance displayed a TNF-α ELISA (A450), Donor 3, 6 nM IgG of 0.159 A450; a TNF-α ELISA (A450), Donor 3, 17 nM IgG of 0.144 A450; a TNF-α ELISA (A450), Donor 3, 50 nM IgG of 0.102 A450; a TNF-α ELISA (A450), Donor 3, 150 nM IgG of 0.029 A450.

“BLV1H12 GLLV 3xG4S OSK1 (P12,K16,D20) (antibody)”: the TNF-α ELISA (A450), Donor 1, 6 nM IgG was 0.666 A450; the TNF-α ELISA (A450), Donor 1, 17 nM IgG is 0.651 A450; the TNF-α ELISA (A450), Donor 1, 50 nM IgG was found to be 0.58 A450; the TNF-α ELISA (A450), Donor 1, 150 nM IgG came out at 0.171 A450. This substance showed a TNF-α ELISA (A450), Donor 2, 6 nM IgG of 0.121 A450; a TNF-α ELISA (A450), Donor 2, 17 nM IgG of 0.108 A450; a TNF-α ELISA (A450), Donor 2, 50 nM IgG of 0.097 A450; a TNF-α ELISA (A450), Donor 2, 150 nM IgG of 0.037 A450. For the same substance, the TNF-α ELISA (A450), Donor 3, 6 nM IgG was determined as 0.191 A450; the TNF-α ELISA (A450), Donor 3, 17 nM IgG worked out at 0.168 A450; the TNF-α ELISA (A450), Donor 3, 50 nM IgG was 0.122 A450; the TNF-α ELISA (A450), Donor 3, 150 nM IgG was determined as 0.037 A450.
